Reference: paper PMC8993113

Assay: two-colour ID-FRAP, CHO-K1 large ER inclusions
Conditions: glycan lost; control: YFP-Z coexpressed with HaloTag-CRT

For “Z-α1-antitrypsin: YFP-ZN46A,N83A,N247A (GlycMut)”, the “other: calreticulin-driven immobilisation in ER inclusions, other: % cells with immobile YFP-Z” value was “abolishes”.
